# Assay results published in US20230257475A1.
# Read-outs that look alike come from different tables or passages of the source.
# What was measured:
# human CD20 (human) [1] = molecular target: human CD20 (human) (UniProt P11836); test: flow cytometry on Raji cells (CD20 on the cell surface), serial dilution of the mAb, detection with PE-conjugated mouse anti-human IgG1Fc, MFI
# human CD22 (human) = human CD22 (human) (UniProt P20273); test: flow cytometry on K562.huCD22.Luc cells against parental K562 cells
# human CD20 (human) [2] = molecular target: human CD20 (human) (UniProt P11836); test: flow cytometry on Raji cells (CD20 on the cell surface), serial dilution of the mAb, detection with PE-conjugated mouse anti-human IgG1Fc, MFI; remark: listed apart in the source
# [3] = molecular target: human CD19, CD20 and CD22 on CD19+CD20+CD22+ tri-positive B lymphoma cells (Raji, Daudi) (human), P15391; test: cell-based or functional assay
# Sequence of UniProt P11836 (P11836 whole entry): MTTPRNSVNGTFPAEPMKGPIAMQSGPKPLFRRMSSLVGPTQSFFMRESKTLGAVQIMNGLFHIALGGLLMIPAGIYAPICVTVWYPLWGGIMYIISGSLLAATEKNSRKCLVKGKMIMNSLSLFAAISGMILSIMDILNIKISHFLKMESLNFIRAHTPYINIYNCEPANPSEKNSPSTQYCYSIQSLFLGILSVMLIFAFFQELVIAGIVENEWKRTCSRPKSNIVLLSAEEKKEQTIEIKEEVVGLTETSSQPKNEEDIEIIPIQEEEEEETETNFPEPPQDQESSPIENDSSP
molecule,measurement,setting,value
Rituximab Fab-huIgG1Fc mAb (antibody),EC50,human CD20 (human) [1],8.1 nM
PE conjugated anti-human CD22 antibody (Miltenyi Biotec. Cat. No. 130-105-086),MFI fold over K562 cells (negative control),human CD22 (human),642 fold
Leu16 Fab-huIgG1Fc mAb (antibody),EC50,human CD20 (human) [2],13.2 nM
same,EC50,human CD20 (human) [1],8.5 nM
AIO-8C1 CAR (protein) QVQLVESGGGSVQAGGSLRLSCGASGNINSRNCMGWFRQAPGKEREGVAAIGQVTGRSYYVDSVKGRFTISLDNAKNTLYLQMNTLKPEDTAMYYCAAAPGCLLSALRSADYRNWGQGTQVTVSSGGGGSEVQLVESGPGLVKPSQTLSLTCTVSGASITTGEFYWNWFRQPPGKGLEWMGAIAASGSTTYSPSFESRTSISRDTSENQFYLQLSSVTPEDTAVYYCGRSFGVAAVTTGQNRGQGTQVTVSSGGGGSQIQLVESGGGLVQPGGSLRLSCAASGFTFSNYPMTWLRQAPGKGLESVSDITSGGDRPYYADSVKGRFTISRDNAKNMLYLEMNSLKTEDTAVYYCATWDRTLTGQGTQVTVSSTSTTTPAPRPPTPAPTIASQPLSLRPEACRPAAGGAVHTRGLDFACDIYIWAPLAGTCGVLLLSLVITLYCKRGRKKLLYIFKQPFMRPVQTTQEEDGCSCRFPEEEEGGCELRVKFSRSADAPAYQQGQNQLYNELNLGRREEYDVLDKRRGRDPEMGGKPRRKNPQEGLYNELQKDKMAEAYSEIGMKGERRRGKGHDGLYQGLSTATKDTYDALHMQALPPR,"IFN-γ release in co-culture with Raji cells, 24 hours, against AIO-7C1 CAR-T cells",[3],2 fold
